Biological target: selenomethionyl (Se-Met) labeled MJ0927 (Methanocaldococcus jannaschii)
Experiment: crystal structure; Se-Met MJ0927, P2_(1) crystal form, MAD phasing; crystals grown at 4°C, 5% PEG3350, 0.1 M sodium acetate pH 5.0, 0.3 M sodium formate, 0.1 M ammonium sulfate, 3% PGA-LM; six molecules in the asymmetric unit

stoichiometry N: 6
Substance: selenomethionyl (Se-Met) labeled MJ0927 (natural protein)

Reference: PMC4163360
